According to doi:10.1101/2024.03.07.581839 (bioRxiv, 2024):

Target: the molecule itself
Test: cryo-EM structure

B1: human GPR156 (receptor)
chain: MEPEINCSELCDSFPGQELDRRPLHDLCKTTITSSHHSSKTISSLSPVLLGIVWTFLSCGLLLILFFLAFTIHCRKNRIVKMSSPNLNIVTLLGSCLTYSSAYLFGIQDVLVGSSMETLIQTRLSMLCIGTSLVFGPILGKSWRLYKVFTQRVPDKRVIIKDLQLLGLVAALLMADVILLMTWVLTDPIQCLQILSVSMTVTGKDVSCTSTSTHFCASRYSDVWIALIWGCKGLLLLYGAYLAGLTGHVSSPPVNQSLTIMVGVNLLVLAAGLLFVVTRYLHSWPNLVFGLTSGGIFVCTTTINCFIFIPQLKQWKAFEEENQTIRRMAKYFSTPNKSFHTQYGEEENCHPRGEKSSMERLLTEKNAVIESLQEQVNNAKEKIVRLMSAECTYDLPEGAAPPASSPNKDVQAVASVHTLAAAQGPSGHLSDFQNDPGMAARDSQCTSGPSSYAQSLEGPGKDSSFSPGKEEKISDSKDFSDHLDSGCSQKPWTEQSLGPERGDQVPMNPSQSLLPERGGSDPQRQRHLENSEEPPERRSRVSSVIREKLQEVLQDLGLGPEASLSTAPSCHQQTWKNSAAFSPQKMPLSKELGFSPYMVRRRRAAQRARSHFPGSAPSSVGHRANRTVPGAHSRLHVQNGDSPSLAPQTTDSRVRRPSSRKPSLPSDPQDRPGTLEGSKQSQTEPEGARGSKAAFLRQPSGSGRAPSPAAPCLSKASPDLPEQWQLWPPVPSGCASLSSQHSYFDTESSSSDEFFCRCHRPYCEICFQSSSDSSDSGTSDTDPEPTGGLASWEKLWARSKPIVNFKDDLKPTLV
With B1 the “stoichiometry N” value was 2.
